Results published in US20230174641A1 (H LUNDBECK A S, published 2023).
Ends that are not written are not given here.

T1: human ACTH 1-39 (human)
T1 peptide: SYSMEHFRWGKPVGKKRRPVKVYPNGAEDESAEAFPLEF

T2: human ACTH 18-39 (human)
T2 construct: also called CLIP; CLIP (ACTH 18-39)
T2 peptide: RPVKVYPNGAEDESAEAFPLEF

T3: N-term biotinylated human ACTH 1-39 (human, N-terminal biotin)
T3 construct: also called huACTH 1-39
T3 peptide: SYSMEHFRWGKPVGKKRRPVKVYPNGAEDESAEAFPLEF

T4: human ACTH 1-13 (human, ends and bridges not checked)
T4 construct: also called human alpha-MSH (ACTH 1-13); alpha-MSH
T4 peptide: SYSMEHFRWGKPV


Legend:
[1] = molecular target: T1, human ACTH 1-39; test: cell-based or functional assay
[2] = molecular target: T1, human ACTH 1-39; test: cell-based or functional assay
[3] = molecular target: T1, human ACTH 1-39; test: SPR ProteOn, antibody immobilised
Experimental: (§1) Antibody was immobilized to the surface of general amine coupling (GLC or GLM) Chips (Bio-Rad). […] At the chosen concentrations of antigen (ranging from 454 ng/ml to 5.6 ng/ml) association times of 200 seconds and dissociation times of 30-200 minutes were used with the ProteOnTM Manager Software (v3.1.0.6, Bio-Rad) to group and fit data using a 1:1 Langmuir binding model. Surfaces were regenerated between analyte queries using 10 mM glycine at pH 2.0. Data repeated across a single density was averaged and a single KD and standard propagation of error calculated for each antibody.

[4] = molecular target: T2, human ACTH 18-39; test: SPR ProteOn, antibody immobilised
Experimental: as §1

[5] = molecular target: T1, human ACTH 1-39; test: cell-based or functional assay
[6] = molecular target: T3, N-term biotinylated human ACTH 1-39; test: ELISA, biotin-ACTH 1-39 on neutravidin plate
Experimental: All incubations were done at room temperature. […] The plates were then blocked using a blocking solution (PBS, 0.5% fish skin gelatin, 0.05% Tween-20) for approximately one hour. The blocking solution was then removed and the plates were then incubated with a dilution series of the antibody being tested for approximately one hour. At the end of this incubation, the plate was washed three times with wash buffer and further incubated with a secondary antibody containing solution (Peroxidase conjugated AffmiPure™ F(ab′)₂ fragment goat anti-human IgG, Fc fragment specific (Jackson Immunoresearch) for approximately 45 minutes and washed three times. Next a substrate solution (TMB peroxidase substrate, BioFx®, SurModics, Eden Prairie, Minn.) was added and incubated for 3 to 5 minutes in the dark. The reaction was stopped by addition of 0.5 M HCl and the plate was read at 450 nm in a plate-reader.

[7] = molecular target: T1, human ACTH 1-39; test: cell-based or functional assay
[8] = molecular target: T4, human ACTH 1-13; test: SPR ProteOn, antibody immobilised; SPR, antibody on the chip, alpha-MSH alone (Table 6)
Experimental: as §1

[9] = molecular target: T4, human ACTH 1-13; test: SPR ProteOn, antibody immobilised
Experimental: as §1

[10] = molecular target: T2, human ACTH 18-39; test: SPR ProteOn, antibody immobilised; SPR, antibody on the chip, CLIP alone (Table 5)
Experimental: as §1

Binder | Y1 Cells IC50 [1] [nM] | MC2R IC50 [2] [nM] | Kd [3] [nM] | koff [3] [s⁻¹] | MC3R IC50 [5] [nM] | MC4R IC50 [5] [nM] | MC5R IC50 [5] [nM] | EC50 [6] [nM] | MC1R IC50 [7] [nM] | koff [9] [s⁻¹] | Kd [4] [nM] | other results
Ab7 (antibody, human IgG1, kappa, N297A, V domains shown, rabbit/human chimeric antibody, made in HEK-293) VH: QSVEESGGRLVTPGTPLTLTCTVSGFSLSSYAMSWVRQAPGEGLEWIGIISDSGSTYYASWAKGRFTISKTSTTVDLRITSPTTEDTATYFCAREPEYGYDDYGDWVSDLWGQGTLVTVSS VL: DIVMTQTPASVEAAVGGTVTIKCQASQSISDYLSWYQQKPGQPPKLLIYRASTLASGVPSRFKGSGSGTQFTLTISDLECADAATYYCQSYYYSSSITYRNAFGGGTEVVVKR | 2.49 | 0.09 | 0.037 | 3.7e-05 | 64.2 | 49.7 | 1100 | 2.24 | 1.29 | – | – | kon [3]: 1e+06 M⁻¹ s⁻¹; koff [4]: > 0.1 s⁻¹; Kd [8]: 54 nM; koff [8]: 0.013 s⁻¹; kon [8]: ~240000 M⁻¹ s⁻¹
Ab9 (antibody, human IgG1, kappa, N297A, V domains shown, rabbit/human chimeric antibody, made in HEK-293) VH: QSVEESGGRLVTPGTPLTLTCTVSGFSLNSYAMSWVRQAPGEGLEWIGIISDSGRTYYASWAKGRFTISKTSTTVDLKITSPTTEDTATYFCAREPEYGYDDYGDWVSDLWGPGTLVTVSS VL: DVVMTQTPASVEAAVGGTVTIKCQASQSISSYLSWYQQKPGQPPKLLIYRASTLASGVPSRFKGSGSGTQFTLTISDLECADAATYYCQSYYYSSSITYRNAFGGGTEVVVKR | 3.47 | 0.12 | – | – | – | – | – | 2.05 | – | – | – | koff [4]: > 0.1 s⁻¹; Kd [8]: 63 nM; koff [8]: 0.009 s⁻¹; kon [8]: ~140000 M⁻¹ s⁻¹
Ab1 (antibody, human IgG1, kappa, N297A, V domains shown, rabbit/human chimeric antibody, made in HEK-293) VH: QSVKESGGRLVTPGTPLTLTCTVSGFSLSNYDMIWVRQAPGKGLESIGMIYDDGDTYYASWAKGRFTISKTSTTVDLKIISPTTEDTATYFCVKGVSNHWGPGTLVTVSS VL: DVVMTQTPASVEAAVGGTVTIKCQASQSISSYLAWYQQKPGQPPKLLIYSASTLASGVPSRFKGRGSGTEFTLTISDLECADAATYYCQSYDGSSGSSYGVGFGGGTEVVVKR | 2.36 | 0.14 | 0.19 | 0.00019 | 101 | 56.4 | 1100 | 0.48 | 2.38 | > 0.1 | 150 | koff [4]: 0.092 s⁻¹; kon [4]: 620000 M⁻¹ s⁻¹
Ab10 (antibody, human IgG1, kappa, N297A, V domains shown, rabbit/human chimeric antibody, made in HEK-293) VH: QSVEESGGRLVTPGTPLTLTCTVSGFSLSSADMIWVRQAPGKGLESIGMIYDDGDTYYATWAKGRFTISKTSTTVDLKIISPTTEDTATYFCVKGVSSVWGQGTLVTVSS VL: DVVMTQTPASVEAAVGGTVTINCQASENIYRSLAWYQQKPGQPPKLLIYSASTLASGVPSRFKGSGSGTEFTLTISDLECADAATYYCQSYDGSSSSSYGVGFGGGTEVVVKR | 5.98 | 0.16 | 0.11 | 0.00011 | 133 | 66.3 | 5400 | 1.57 | 2.14 | > 0.1 | – | kon [3]: 1e+06 M⁻¹ s⁻¹; Kd [10]: 250 nM; koff [10]: 0.27 s⁻¹; kon [10]: 1.1e+06 M⁻¹ s⁻¹
Ab4 (antibody, human IgG1, kappa, N297A, V domains shown, rabbit/human chimeric antibody, made in HEK-293) VH: QSVEESGGRLVTPGTPLTLTYTVSGFSLSKHDMIWVRQAPGKGLESIGIIYDDGDTYYANWAKGRFTISKTSTTVDLKIISPTTEDTATYFCVKGVSNIWGPGTLVTVSS VL: DVVMTQTPASVEAAVGGTVTIKCRASQSISVYLAWYQQKAGQPPKLLIYQASKLASGVPSRFKGSGSGTEFTLTISDLECADAATYYCQSYDGSSSSSYGVGFGGGTEVVVKR | 17.2 | 0.46 | 0.27 | 0.00027 | 113 | 65.8 | 1300 | 0.39 | 5.73 | > 0.1 | 270 | kon [3]: 1e+06 M⁻¹ s⁻¹; koff [4]: 0.19 s⁻¹; kon [4]: 710000 M⁻¹ s⁻¹
Ab2.H (antibody, human IgG1, kappa, N297A, V domains shown, humanized form of Ab2) VH: EVQLVESGGGLVQPGGSLRLSCAASGFTVSKYDMIWVRQAPGKGLESIGIIYDDGDTYYASSAKGRFTISRDNSKNTLYLQMNSLRAEDTAVYYCVKGVSNIWGQGTLVTVSS VL: DIQMTQSPSTLSASVGDRVTITCQASQSISNYLAWYQQKPGKAPKLLIYSASTLASGVPSRFSGSGSGTEFTLTISSLQPDDFATYYCQSYEGSSSSSYGVGFGGGTKVEIKR | – | – | – | – | – | – | – | – | – | – | 28 | –
Ab10.H (antibody, human IgG1, kappa, N297A, V domains shown, humanized form of Ab10) VH: EVQLVESGGGLVQPGGSLRLSCAASGFTVSSADMIWVRQAPGKGLESIGMIYDDGDTYYATSAKGRFTISRDNSKNTLYLQMNSLRAEDTAVYYCVKGVSSVWGQGTLVTVSS VL: DIQMTQSPSTLSASVGDRVTITCQASENIYRSLAWYQQKPGKAPKLLIYSASTLASGVPSRFSGSGSGTEFTLTISSLQPDDFATYYCQSYDGSSSSSYGVGFGGGTKVEIKR | – | – | – | – | – | – | – | – | – | – | 13 | –
Ab4.H (antibody, human IgG1, kappa, N297A, V domains shown, humanized form of Ab4) VH: EVQLVESGGGLVQPGGSLRLSCAASGFTVSKHDMIWVRQAPGKGLESIGIIYDDGDTYYANSAKGRFTISRDNSKNTLYLQMNSLRAEDTAVYYCVKGVSNIWGQGTLVTVSS VL: DIQMTQSPSTLSASVGDRVTITCRASQSISVYLAWYQQKPGKAPKLLIYQASKLASGVPSRFSGSGSGTEFTLTISSLQPDDFATYYCQSYDGSSSSSYGVGFGGGTKVEIKR | – | – | – | – | – | – | – | – | – | – | 92 | –
Ab1.H (antibody, human IgG1, kappa, N297A, V domains shown, humanized form of Ab1) VH: EVQLVESGGGLVQPGGSLRLSCAASGFTVSNYDMIWVRQAPGKGLESIGMIYDDGDTYYASSAKGRFTISRDNSKNTLYLQMNSLRAEDTAVYYCVKGVSNHWGQGTLVTVSS VL: DIQMTQSPSTLSASVGDRVTITCQASQSISSYLAWYQQKPGKAPKLLIYSASTLASGVPSRFSGSGSGTEFTLTISSLQPDDFATYYCQSYDGSSGSSYGVGFGGGTKVEIKR | – | – | – | – | – | – | – | – | – | – | 20 | –

Second part, led by results:

Y1 Cells IC50 [1] [nM] | MC2R IC50 [2] [nM] | Kd [3] [nM] | koff [3] [s⁻¹] | MC3R IC50 [5] [nM] | MC4R IC50 [5] [nM] | MC5R IC50 [5] [nM] | EC50 [6] [nM] | MC1R IC50 [7] [nM] | koff [9] [s⁻¹] | Kd [4] [nM] | Binder | other results
1.53 | 0.03 | 0.04 | 4e-05 | 108 | 49.4 | 4200 | – | 1.49 | > 0.1 | – | Ab11 (antibody, human IgG1, kappa, N297A, V domains shown, rabbit/human chimeric antibody, made in HEK-293) VH: QSLEESGGRLVTPGTSLTLTCTASGFSLSAYDILWVRQAPGKGLESIGMMYDDGDTYYATWAKGRFIISRTSTTMDLKIISPTTEDTATYFCVKGVSNIWGQGTLVTVSS VL: DIVMTQIPASVEAAVGGTVTIKCQASQSIDSSLAWYQQKPGQPPKLLIYSASTLASGVPSRFKGSGSGTEFTLTIGDLECADAATYYCQSYDGSSSSYYGIGFGGGTEVVVKR | kon [3]: 1e+06 M⁻¹ s⁻¹; Kd [10]: 54 nM; koff [10]: 0.086 s⁻¹; kon [10]: 1.6e+06 M⁻¹ s⁻¹
2.68 | 0.05 | – | – | – | – | – | 0.76 | 1.66 | > 0.1 | – | Ab12 (antibody, human IgG1, kappa, N297A, V domains shown, rabbit/human chimeric antibody, made in HEK-293) VH: QSVEESGGRLVTPGTPLTLTCTVSGSSLSDYDMIWVRQAPGKGLESIGIIYDDGDTYYATWAKGRFTISKTSTTVDLRIISPTTEDTATYFCVKGVSNMWGPGTLVTVSS VL: DVVMTQTPSSVSAAVGGTVTIKCQASQSIGSSLAWYQQKPGQRPKLLIYAASTLASGVPSRFKGSGSGTEFTLTISDLECADAATYYCQSYDGSSSSSYGVGFGGGTEVVVKR | Kd [10]: 27 nM; koff [10]: 0.024 s⁻¹; kon [10]: 890000 M⁻¹ s⁻¹
– | – | – | – | – | – | – | – | – | – | 20 | Ab11A.H (antibody, human IgG1, kappa, N297A, V domains shown) VH: EVQLVESGGGLVQPGGSLRLSCAASGFTVSAYDILWVRQAPGKGLESIGMMYDDGDTYYATSAKGRFTISRDNSKNTLYLQMNSLRAEDTAVYYCVKGVSNIWGQGTLVTVSS VL: DIQMTQSPSTLSASVGDRVTITCQASQSIGSSLAWYQQKPGKAPKLLIYSASTLASGVPSRFSGSGSGTEFTLTISSLQPDDFATYYCQSYEGSSSSYYGIGFGGGTKVEIKR | –
– | – | – | – | – | – | – | – | – | – | 8.8 | Ab12.H (antibody, human IgG1, kappa, N297A, V domains shown, humanized form of Ab12) VH: not shown VL: DIQMTQSPSTLSASVGDRVTITCQASQSIGSSLAWYQQKPGKAPKLLIYAASTLASGVPSRFSGSGSGTEFTLTISSLQPDDFATYYCQSYDGSSSSSYGVGFGGGTKVEIKR | –
– | – | – | – | – | – | – | – | – | – | 20 | Ab11.H (antibody, human IgG1, kappa, N297A, V domains shown, humanized form of Ab11) VH: EVQLVESGGGLVQPGGSLRLSCAASGFTVSAYDILWVRQAPGKGLESIGMMYDDGDTYYATSAKGRFTISRDNSKNTLYLQMNSLRAEDTAVYYCVKGVSNIWGQGTLVTVSS VL: DIQMTQSPSTLSASVGDRVTITCQASQSIDSSLAWYQQKPGKAPKLLIYSASTLASGVPSRFSGSGSGTEFTLTISSLQPDDFATYYCQSYDGSSSSYYGIGFGGGTKVEIKR | –
